Where only a bound is given, the exact number is not on record here.

In the experiment the target is T1, hNGAL lipocalin mutein SEQ ID NO: 1.
T1 chain: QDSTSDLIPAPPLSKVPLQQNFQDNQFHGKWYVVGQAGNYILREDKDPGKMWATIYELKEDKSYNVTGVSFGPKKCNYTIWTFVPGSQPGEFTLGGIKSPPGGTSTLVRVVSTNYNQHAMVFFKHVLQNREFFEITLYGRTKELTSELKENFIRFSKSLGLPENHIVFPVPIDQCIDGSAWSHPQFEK
Nature of the experiment: solution competition ELISA: ligand titrated against 0.1 nM SEQ ID NO: 1, free mutein captured on immobilised hAng-2. The protocol:
In the following detailed experimental protocol, incubation and washing steps were performed as described above in the competition ELISA protocol (see Example 5).
The residual supernatants were discarded and 20 μl HRP-labeled anti-lipocalin-mutein antibody was added at a predetermined optimal concentration in PBS-T/BSA and incubated for 1 h at RT. […] After washing, 20 μl fluorogenic HRP substrate (Quantablue, Pierce) was added to each well, and the reaction was allowed to proceed for 60 minutes. The fluorescence intensity of every well on the plate was read using a Genios Plus Microplate reader (Tecan).

B1: human angiopoietin-1 (Ang-1) (ligand, UniProt Q15389 20-498, looked up)
chain: SNQRRSPENSGRRYNRIQHGQCAYTFILPEHDGNCRESTTDQYNTNALQRDAPHVEPDFSSQKLQHLEHVMENYTQWLQKLENYIVENMKSEMAQIQQNAVQNHTATMLEIGTSLLSQTAEQTRKLTDVETQVLNQTSRLEIQLLENSLSTYKLEKQLLQQTNEILKIHEKNSLLEHKILEMEGKHKEELDTLKEEKENLQGLVTRQTYIIQELEKQLNRATTNNSVLQKQQLELMDTVHNLVNLCTKEGVLLKGGKREEEKPFRDCADVYQAGFNKSGIYTIYINNMPEPKKVFCNMDVNGGGWTVIQHREDGSLDFQRGWKEYKMGFGNPSGEYWLGNEFIFAITSQRQYMLRIELMDWEGNRAYSQYDRFHIGNEKQNYRLYLKGHTGTAGKQSSLILHGADFSTKDADNDNCMCKCALMLTGGWWFDACGPSNLNGMFYTAGQNHGKLNGIKWHYFKGPSYSLRSTTMMIRPLDF
notes: also called hAng-1; human Ang-1
Turning to B1, the IC50 was over 100 nM.

Source of the values: patent US20200140501A1 (published 2020).
